These results are taken from doi:10.1101/116178.

For the assay, the target named is RFP-p62 (UniProt Q13501). As to the kind of experiment: co-IP.

The substance “mHTT aa1-1212 138Q-C6R (domain or fragment)” returned a fold binding against cleavable mHTT of 2 fold.
